In one test the target is T1, Peptide-4 (cysteine pairing not given here; also: biotinylated, site not given here).
T1 peptide: VDFCKIYAWPICGS
Put plainly: ELISA, Fab on captured biotin-peptide.

Another test addresses T2, Peptide-5 (cysteine pairing not given here; also: biotinylated, site not given here).
T2 peptide: VDFCKLYNWPVCQT
In words: ELISA, Fab on captured biotin-peptide. (In general: An ELISA detects its analyte on a solid surface through an enzyme-linked reagent.)

The target of the next test is T3, Peptide-6 (cysteine pairing not given here; also: biotinylated, site not given here).
T3 peptide: IDFCLIYNWPVCDT
Put plainly: ELISA, Fab on captured biotin-peptide.

Test [1] has as its target T4, Peptide-8 (cysteine pairing not given here; also: biotinylated, site not given here).
T4 peptide: VDFCGLYHWPICYQ
In words: ELISA, Fab on captured biotin-peptide.

A further test addresses T5, Peptide-12 (cysteine pairing not given here; also: biotinylated (site not given here)).
T5 peptide: PDFCAVYRWPICYQ
Put plainly: ELISA, Fab on captured biotin-peptide.

The next test has as its target T6, Peptide-17 (cysteine pairing not given here; also: biotinylated (site not given here)).
T6 peptide: IDFCLLYDWPICGR
Put plainly: ELISA, Fab on captured biotin-peptide.

Another test has as its target T7, Peptide-20 (cysteine pairing not given here; also: biotinylated (site not given here)).
T7 peptide: VDFCSFYRWPICET
Put plainly: ELISA, Fab on captured biotin-peptide.

The next test has as its target T8, Peptide-25 (cysteine pairing not given here; also: biotinylated (site not given here)).
T8 peptide: VDFCKIYSWPVCHQ
In words: ELISA, Fab on captured biotin-peptide.

In a further test the target is T9, Peptide-26 (cysteine pairing not given here; also: biotinylated, site not given here).
T9 peptide: DNLICVKNLWCWIA
Put plainly: ELISA, Fab on captured biotin-peptide.

The target in the next test is T10, Peptide-31 (cysteine pairing not given here; also: biotinylated, site not given here).
T10 peptide: YSLVCVKNLYCWNL
In words: ELISA, Fab on captured biotin-peptide.

Another test deals with T11, Peptide-1 (cysteine pairing not given here; also: biotinylated (site not given here)).
T11 peptide: IDFCAMYQWPICDT
In words: ELISA, Fab on captured biotin-peptide.

A further test concerns the target T12, Peptide-3 (cysteine pairing not given here; also: biotinylated, site not given here).
T12 peptide: IDFCMLYNWPICAG
Put plainly: ELISA, Fab on captured biotin-peptide.

Test [2] deals with T4, Peptide-8. Put plainly: ELISA, Fab on captured biotin-peptide.
The target in another test is T13, Peptide-43 (cysteine pairing not given here; also: biotinylated, site not given here).
T13 peptide: VDFCALYHWPICYQ
Put plainly: ELISA, Fab on captured biotin-peptide.

Another test addresses T14, Peptide-45 (cysteine pairing not given here; also: biotinylated, site not given here).
T14 peptide: VDFCYQYGWPICSRVD
Put plainly: ELISA, Fab on captured biotin-peptide.

Another test addresses T15, Peptide-47 (cysteine pairing not given here; also: biotinylated, site not given here).
T15 peptide: VDFCYQYGWPICSRLY
Put plainly: ELISA, Fab on captured biotin-peptide.

A further test concerns the target T16, Peptide-48 (cysteine pairing not given here; also: biotinylated, site not given here).
T16 peptide: VDFCYMYKWPVCYP
Put plainly: ELISA, Fab on captured biotin-peptide.

For the next test, the target named is T17, Peptide-49 (cysteine pairing not given here; also: biotinylated, site not given here).
T17 peptide: IDFCLLYKWPVCEL
In words: ELISA, Fab on captured biotin-peptide.

A further test deals with T18, Peptide-50 (cysteine pairing not given here; also: biotinylated, site not given here).
T18 peptide: VDFCAIYSWPICKI
Put plainly: ELISA, Fab on captured biotin-peptide.

The next test has as its target T19, Peptide-51 (cysteine pairing not given here; also: biotinylated, site not given here).
T19 peptide: VDFCGLYHWPICYQV
Put plainly: ELISA, Fab on captured biotin-peptide.

Another test concerns the target T20, Peptide-53 (cysteine pairing not given here; also: biotinylated, site not given here).
T20 peptide: IDFCRVYDWPVCSL
Put plainly: ELISA, Fab on captured biotin-peptide.

In the next test the target is T21, Peptide-54 (cysteine pairing not given here; also: biotinylated, site not given here).
T21 peptide: VDFCYRYSWPVCWA
In words: ELISA, Fab on captured biotin-peptide.

The next test has as its target T22, Peptide-55 (cysteine pairing not given here; also: biotinylated, site not given here).
T22 peptide: VDFCYKYNWPICSR
Put plainly: ELISA, Fab on captured biotin-peptide.

A further test concerns the target T23, Peptide-56 (cysteine pairing not given here; also: biotinylated, site not given here).
T23 peptide: VDFCYQYGWPICSRV
Put plainly: ELISA, Fab on captured biotin-peptide.

A further test has as its target T24, Peptide-57 (cysteine pairing not given here; also: biotinylated, site not given here).
T24 peptide: IDFCYRYGWPVCQT
Put plainly: ELISA, Fab on captured biotin-peptide.

In another test the target is T25, Peptide-59 (cysteine pairing not given here; also: biotinylated, site not given here).
T25 peptide: VDFCALYNWPVCAI
In words: ELISA, Fab on captured biotin-peptide.

For the next test, the target named is T26, Peptide-60 (cysteine pairing not given here; also: biotinylated, site not given here).
T26 peptide: VDFCNLYHWPICAI
Put plainly: ELISA, Fab on captured biotin-peptide.

The next test concerns the target T27, Peptide-61 (cysteine pairing not given here; also: biotinylated, site not given here).
T27 peptide: VDFCALYHWPVCGL
Put plainly: ELISA, Fab on captured biotin-peptide.

Test [3] deals with T28, Human TROP2 ECD (31-274 AA), biotinylated (human, UniProt P09758 31-274, biotinylated (site not stated)).
T28 construct: captured on neutravidin plates; also called TROP2-biotin; Trop2-biotin
T28 sequence: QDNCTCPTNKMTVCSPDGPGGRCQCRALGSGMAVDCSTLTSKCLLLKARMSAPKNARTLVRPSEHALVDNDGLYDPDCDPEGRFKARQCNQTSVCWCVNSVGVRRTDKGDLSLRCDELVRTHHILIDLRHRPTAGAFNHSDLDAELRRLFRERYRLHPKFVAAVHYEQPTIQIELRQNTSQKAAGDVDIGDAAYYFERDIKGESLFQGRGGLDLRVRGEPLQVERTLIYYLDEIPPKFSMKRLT
In words: ELISA, Fab on captured biotin-TROP2.

The next test deals with T29, Peptide-28 (cysteine pairing not given here; also: biotinylated, site not given here).
T29 peptide: NYLLCVKNLYCWIV
Put plainly: ELISA, Fab on captured biotin-peptide.

Like-named read-outs stand apart in the source and are kept apart here. Where no end group is shown, it is not given here. A value given as a limit tells only on which side of the number the result lay.

B1: TBD-1 wt (Fab, V domains shown)
VH: QVQLQQSGSELKKPGASVKVSCKASGYTFTNYGMNWVKQAPGQGLKWMGWINTYTGEPTYTDDFKGRFAFSLDTSVSTAYLQISSLKADDTAVYFCARGGFGSSYWYFDVWGQGSLVTVSS
VL: DIQLTQSPSSLSASVGDRVSITCKASQDVSIAVAWYQQKPGKAPKLLIYSASYRYTGVPDRFSGSGSGTDFTLTISSLQPEDFAVYYCQQHYITPLTFGAGTKVEIKR
notes: Fab; the heavy chain entry is VH-CH1; also called wild-type anti-TROP2 Fab (hRS7); TROP2 Fab
In general, EC50 refers to the concentration that produces a half-maximal response. Consider B1, for which the EC50 in the test with Peptide-4 was 9.2 nM; with Peptide-5, 16.5 nM; with Peptide-6, 28.5 nM; with Peptide-8 [1] it was 40.2 nM; with Peptide-12, 35.9 nM; with Peptide-17, 132 nM. Besides, the EC50 with Peptide-20 stood at 600 nM; with Peptide-25 it was 48.2 nM; with Peptide-26, 85 nM; in the test with Peptide-31, 42.1 nM; in the test with Peptide-1, 22.5 nM; with Peptide-3 it was 91.5 nM. Further, the EC50 in the test with Peptide-8 [2] came to 55.6 nM; with Peptide-43, 28.6 nM; in the test with Peptide-45, 50.8 nM; in the test with Peptide-47, 113 nM; in the test with Peptide-48, 21.5 nM; with Peptide-49, 296 nM. The EC50 with Peptide-50 came to 96.2 nM; with Peptide-51, 45.1 nM; with Peptide-53, 45.3 nM; in the test with Peptide-54 it was 63.5 nM; with Peptide-55, 15.7 nM; with Peptide-56 it was 52.8 nM. The EC50 with Peptide-57 came to 25.7 nM; with Peptide-59 it was 61.1 nM; with Peptide-60, 47.8 nM; with Peptide-61, 191 nM.

B2: TBD-21 (HC F108A) (Fab, V domains shown)
VH: QVQLQQSGSELKKPGASVKVSCKASGYTFTNYGMNWVKQAPGQGLKWMGWINTYTGEPTYTDDFKGRFAFSLDTSVSTAYLQISSLKADDTAVYFCARGGFGSSYWYADVWGQGSLVTVSS
VL: DIQLTQSPSSLSASVGDRVSITCKASQDVSIAVAWYQQKPGKAPKLLIYSASYRYTGVPDRFSGSGSGTDFTLTISSLQPEDFAVYYCQQHYITPLTFGAGTKVEIKR
notes: Fab; also called HC F108A mutant
In the case of B2, the 50% effective concentration (EC50) in [3] came to 4.2 nM; with Peptide-4, 12.7 nM; in the test with Peptide-5, 15.6 nM; with Peptide-6, 24.9 nM; with Peptide-8 [1], 13 nM; in the test with Peptide-12, 10.1 nM. Besides, the half-maximal effective concentration (EC50) is 16.4 nM with Peptide-17; 89 nM with Peptide-20; 48.4 nM with Peptide-25; 390 nM with Peptide-26; 146 nM with Peptide-28; 13.5 nM with Peptide-1.

B3: TBD-11 (HC R98A) (Fab, V domains shown)
VH: QVQLQQSGSELKKPGASVKVSCKASGYTFTNYGMNWVKQAPGQGLKWMGWINTYTGEPTYTDDFKGRFAFSLDTSVSTAYLQISSLKADDTAVYFCAAGGFGSSYWYFDVWGQGSLVTVSS
VL: DIQLTQSPSSLSASVGDRVSITCKASQDVSIAVAWYQQKPGKAPKLLIYSASYRYTGVPDRFSGSGSGTDFTLTISSLQPEDFAVYYCQQHYITPLTFGAGTKVEIKR
notes: Fab; also called HC R98A mutant
As for B3, the EC50 in test [3] came out at 3.4 nM; in the test with Peptide-4, 179 nM; with Peptide-5, 232 nM; with Peptide-6 it was 363 nM; with Peptide-8 [1], 156 nM; with Peptide-12, 157 nM. For the same molecule, the EC50 in the test with Peptide-17 is 191 nM; with Peptide-25 it was greater than 1000 nM; with Peptide-1 it was 292 nM; with Peptide-3, 296 nM; in the test with Peptide-8 [2], 319 nM; with Peptide-43, 43.6 nM. The EC50 amounted to 138 nM in the test with Peptide-45; 304 nM in the test with Peptide-47; 42.4 nM in the test with Peptide-48; 130 nM in the test with Peptide-49; 35.5 nM with Peptide-50; 244 nM with Peptide-51. Also, the EC50 in the test with Peptide-53 was 32.5 nM; with Peptide-54 it was 147 nM; with Peptide-55, 36.8 nM; in the test with Peptide-56, 127 nM; in the test with Peptide-57, 85.6 nM; in the test with Peptide-59 it was 92.8 nM. For the same molecule, the EC50 in the test with Peptide-60 is 60.4 nM; in the test with Peptide-61 it was 272 nM.

B4: TBD-17 (HC S104A) (Fab, V domains shown)
VH: QVQLQQSGSELKKPGASVKVSCKASGYTFTNYGMNWVKQAPGQGLKWMGWINTYTGEPTYTDDFKGRFAFSLDTSVSTAYLQISSLKADDTAVYFCARGGFGSAYWYFDVWGQGSLVTVSS
VL: DIQLTQSPSSLSASVGDRVSITCKASQDVSIAVAWYQQKPGKAPKLLIYSASYRYTGVPDRFSGSGSGTDFTLTISSLQPEDFAVYYCQQHYITPLTFGAGTKVEIKR
notes: Fab; also called HC S104A mutant
Regarding B4, the EC50 in test [3] was 0.3 nM; in the test with Peptide-4 it was 6.5 nM; with Peptide-5, 5.4 nM; in the test with Peptide-6, 10.1 nM; with Peptide-8 [1] it was 8.2 nM; with Peptide-12 it was 6.8 nM. The concentration for a half-maximal effect (EC50) with Peptide-17 amounted to 8.5 nM; with Peptide-20 it was 115 nM; with Peptide-25, 38.8 nM; with Peptide-26 it was 379 nM; with Peptide-28 it was 247 nM; in the test with Peptide-31, 164 nM. Further, in the test with Peptide-1, it took 7.3 nM to reach a half-maximal effect (EC50).

These data come from US20230357429A1 (JANUX THERAPEUTICS, published 2023).
